The values that follow come from article PMC7053995, “New approach for membrane protein reconstitution into peptidiscs and basis for their adaptability to different proteins” (eLife, 2020).

Series [1] deals with Rhodobacter sphaeroides dimeric RC–LH1–PufX complex (521 kDa) (Rhodobacter sphaeroides) (UniProt P0C0Y7). In words: negative-stain electron microscopy; SEC peak fractions of purified RC complexes in peptidiscs, 0.7% uranyl formate, 100 class averages by K-means classification.
Series [2] deals with the molecule itself. Description: cryo-EM structure; single-particle cryo-EM of His-tagged membrane protein reconstituted on Ni beads into peptidiscs and purified by SEC; vitrified; Titan Krios 300 kV, K2 Summit; RELION-3 with C2 (MsbA) or C7 (MscS) symmetry imposed, also processed without symmetry.

On to “Rhodobacter sphaeroides dimeric RC–LH1–PufX complex (521 kDa) (from UniProt P0C0Y7 1-260; P13402 1-82)”, for which the stoichiometry N in series [1] is 2.

B1: Escherichia coli MsbA (ABC transporter, lipid transporter), His-tagged (natural protein)
chain: MHNDKDLSTWQTFRRLWPTIAPFKAGLIVAGVALILNAASDTFMLSLLKPLLDDGFGKTDRSVLVWMPLVVIGLMILRGITSYVSSYCISWVSGKVVMTMRRRLFGHMMGMPVSFFDKQSTGTLLSRITYDSEQVASSSSGALITVVREGASIIGLFIMMFYYSWQLSIILIVLAPIVSIAIRVVSKRFRNISKNMQNTMGQVTTSAEQMLKGHKEVLIFGGQEVETKRFDKVSNRMRLQGMKMVSASSISDPIIQLIASLALAFVLYAASFPSVMDSLTAGTITVVFSSMIALMRPLKSLTNVNAQFQRGMAACQTLFTILDSEQEKDEGKRVIERATGDVEFRNVTFTYPGRDVPALRNINLKIPAGKTVALVGRSGSGKSTIASLITRFYDIDEGEILMDGHDLREYTLASLRNQVALVSQNVHLFNDTVANNIAYARTEQYSREQIEEAARMAYAMDFINKMDNGLDTVIGENGVLLSGGQRQRIAIARALLRDSPILILDEATSALDTESERAIQAALDELQKNRTSLVIAHRLSTIEKADEIVVVEDGVIVERGTHNDLLEHRGVYAQLHKMQFGQ
notes: MsbA, ABC transporter of Escherichia coli; Nucleotide-free; also called His6-MsbA; source: E. coli C43, purified (DDM, Ni-NTA, SEC)
Consider B1, for which the “stoichiometry N” value in series [2] was determined as 2.

B2: Escherichia coli mechanosensitive channel MscS, His-tagged (natural protein, UniProt P0C0S1 1-286, looked up)
chain: MEDLNVVDSINGAGSWLVANQALLLSYAVNIVAALAIIIVGLIIARMISNAVNRLMISRKIDATVADFLSALVRYGIIAFTLIAALGRVGVQTASVIAVLGAAGLAVGLALQGSLSNLAAGVLLVMFRPFRAGEYVDLGGVAGTVLSVQIFSTTMRTADGKIIVIPNGKIIAGNIINFSREPVRRNEFIIGVAYDSDIDQVKQILTNIIQSEDRILKDREMTVRLNELGASSINFVVRVWSNSGDLQNVYWDVLERIKREFDAAGISFPYPQMDVNFKRVKEDKAA
notes: full-length E. coli MscS cloned into pET-28b(+); Homo-heptamer; source: E. coli BL21 (DE3), purified (Ni-NTA, SEC)
B2: in series [2], the “stoichiometry N” value came to 7.
